Test system: high-mobility group box 1 (HMGB1)
Sequence (chain, as listed by the source): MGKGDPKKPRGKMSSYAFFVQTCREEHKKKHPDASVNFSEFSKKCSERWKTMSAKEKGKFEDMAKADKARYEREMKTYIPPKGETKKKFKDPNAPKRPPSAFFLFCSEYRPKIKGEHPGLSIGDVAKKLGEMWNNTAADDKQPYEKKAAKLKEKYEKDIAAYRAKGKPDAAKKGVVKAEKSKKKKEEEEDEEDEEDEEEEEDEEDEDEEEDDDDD

With MAGE-A3/6-TRIM28 E3 ubiquitin ligase the “in vitro ubiquitination reactions on protein microarrays containing >9000 recombinant proteins (screen for direct substrates of MAGE-A)” value was “As a significantly ubiquitinated target of the MAGE-TRIM28 complex, high-mobility group box 1 (HMGB1) emerged”.

— patent US20190300967
